The text below walks through data of patent US12404345B2, “Humanized antibodies against iRHOM2” (SCIRHOM GMBH, priority 2021, dated 2025).

The assay concerns the target T1, endogenous iRhom2 on THP-1 cells (Homo sapiens, UniProt Q6PJF5).
T1 construct: THP-1 cells, a human monocytic cell line endogenously expressing both iRhom2 and iRhom1; host or cells: THP-1
T1 sequence (Q6PJF5 1-856): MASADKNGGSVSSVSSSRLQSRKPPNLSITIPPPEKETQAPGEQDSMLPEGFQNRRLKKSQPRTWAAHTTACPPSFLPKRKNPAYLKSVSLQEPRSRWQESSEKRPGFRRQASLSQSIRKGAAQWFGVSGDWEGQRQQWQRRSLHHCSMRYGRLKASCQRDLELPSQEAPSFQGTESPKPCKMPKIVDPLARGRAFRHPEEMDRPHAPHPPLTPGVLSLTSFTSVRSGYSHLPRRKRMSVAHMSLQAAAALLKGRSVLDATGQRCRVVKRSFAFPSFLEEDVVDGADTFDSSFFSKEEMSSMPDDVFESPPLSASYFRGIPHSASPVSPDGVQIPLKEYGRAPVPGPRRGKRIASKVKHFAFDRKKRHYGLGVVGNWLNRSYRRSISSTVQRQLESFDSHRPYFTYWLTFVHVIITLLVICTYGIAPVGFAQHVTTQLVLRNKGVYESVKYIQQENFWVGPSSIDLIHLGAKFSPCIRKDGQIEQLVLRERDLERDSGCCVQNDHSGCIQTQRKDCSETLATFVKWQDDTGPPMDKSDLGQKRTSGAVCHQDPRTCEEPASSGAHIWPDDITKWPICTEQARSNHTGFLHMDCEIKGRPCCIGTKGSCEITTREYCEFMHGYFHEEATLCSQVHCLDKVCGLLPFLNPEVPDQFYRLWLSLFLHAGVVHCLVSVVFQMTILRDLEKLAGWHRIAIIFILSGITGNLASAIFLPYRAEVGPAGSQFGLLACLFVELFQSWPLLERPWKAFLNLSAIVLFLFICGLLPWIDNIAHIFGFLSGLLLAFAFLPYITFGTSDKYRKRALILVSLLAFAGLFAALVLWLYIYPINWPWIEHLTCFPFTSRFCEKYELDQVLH
The assay can be described thus: FACS binding to THP-1 cells endogenously expressing iRhom2 and iRhom1. The note with it: antibody at 3 μg/ml. As for the experimental part:
In this study, binding specificity analyses of the humanized antibody 42-B-02 as a representative example of the antibodies of the invention in cell lines endogenously expressing iRhom2 were performed. The studies were conducted on RPMI-8226 cells, a human B lymphocytic cell line endogenously expressing iRhom2 but being endogenously negative for iRhom1, on THP-1 cells, a human monocytic cell line endogenously expressing both iRhom2 and iRhom1 and on RH-30 cells, a human […] cell line endogenously negative for iRhom2 but endogenously expressing iRhom1.
In brief, human RPMI-8226 cells (Deutsche Sammlung von Mikroorganismen und Zellkulturen, Germany), THP-1 cells (American Type Culture Collection, USA) and RH-30 cells (Deutsche Sammlung von Mikroorganismen und Zellkulturen, Germany) were harvested with 10 mM EDTA in PBS, washed and resuspended in FACS buffer (PBS, 3% FBS, 0.05% sodium azide), and seeded in Nunc U-bottom 96-well plates (Thermo Fisher Scientific, USA) at approximately 2×10^5 cells per well. In order to pellet cells and remove supernatants, the plates were centrifuged at 1,500 rpm and 4° C. for 3 minutes. […] Finally, cells were resuspended in 150 μl per well of FACS buffer and analyzed using a BD Accuri™ C6 Plus flow cytometer (Becton Dickinson, Germany).
(In general: A flow cytometer gives signals particle by particle.)

B1: 42-B-02: humanized antibody binding human iRhom2; HCVD SEQ ID NO 33, LCVD SEQ ID NO 37 (antibody, V domains shown)
VH: QVTLRESGPALVKPTQTLTLTCTFSGFSLSTFGRGVGWIRQPPGKALEWLAHIWWDDEKYYNSALKSRLTISKDTSKNQVVLTITNMDPVDTATYYCARIQNYGSNYWYFDVWGQGTLVTVSS
VL: AIQLTQSPSSLSASVGDRVTITCRASSRISYMFWYQQKPGKAPKVLIYDTSNLASGVPSRFSGSGSGTDYTLTISSLQPEDFATYYCQQWNSYPLTFGQGTKLEIK
modifications: antibody sequences
As to B1, the “binding to THP-1 cells (endogenously expressing iRhom2 and iRhom1)” value is recorded as “strong binding”.
